# Reference: the RNAGym collection of RNA variant scans (doi:10.1073/pnas.2313332121)
# This sample holds only a part of the variants without activity.
# B1: TPR 5TU (parent)
# chain: GGAUCUUCUCGAUCUAACAAAAAAGACAAAUCUGCCACAAAGCUUGAGAGCAUCUUCGGAUGCAGAGGCGGCAGCCUUCGGUGGCGCGAUAGCGCCAACGUUCUCAACUAUGACACGCAAAACGCGUGCUCCGUUGAAUGGAGUUUAUCAUG
# Variants of: B1
# Test: polymerase ribozyme fitness, log enrichment relative to wild type (log ratio); higher = more active; in vitro selection for triplet polymerase activity
# How it was run: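 Both subunits of a heterodimeric triplet polymerase ribozyme were given their own mutant library, built by PCR and transcribed. Each library was annealed with a biotinylated primer, the partner subunit and triplets, incubated frozen at −7 °C, and its extended constructs gel-excised, captured on streptavidin beads and amplified by RT-PCR, all in one round done in triplicate. Fitness is the logarithm of genotype enrichment relative to wild-type enrichment, with replicates averaged by inverse-variance weighting. That logarithm is base 2, and Illumina-sequenced genotypes needed ≥10 input reads and ≥1 read per output.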
row,Variant,polymerase ribozyme fitness (log ratio)
1,U78C G92C C105U A106G C114U U148G,≤ -4.2
2,C76U A89G,-1.03
3,A73U G86U,-4.19
4,C76U G84U A98U,-1.66
5,C76U C87G C125G,≤ -4.2
6,C75A C79U G94C,≤ -4.2
7,C75U G88A A119U,≤ -4.2
8,A73U G80U,-2.82
9,C75U G86C A115U,-2.41
10,U77G G141A,-4.18
11,C76U A122G,-0.0921
12,G74C C105U A107G,≤ -4.2
13,C75U A91G U104A U139A,≤ -4.2
14,C76G G86A,≤ -4.2
15,C76A C105U,-2.47
16,U77G C99A G140A,≤ -4.2
17,C76U C85U,-2.03
18,C75U U139A G140C,-4.11
19,C76A C118A,-0.944
20,U77G A91G G152A,≤ -4.2
21,C76U C85A G141C U148C,-3.74
22,C76G C103G U104G U135C,≤ -4.2
23,C76U C95A C96U U151G,≤ -4.2
24,A73U G84A G92A A122C U134A,≤ -4.2

row,Variant,polymerase ribozyme fitness (log ratio)
1,U77G G86U U102C G140C,≤ -4.2
2,C75U G83A C105G G128U U134A A138U G141U,≤ -4.2
3,C76A,-0.118
4,C76U,0.0494
5,C76A C96G,-1.51
6,C76A A142G U146A,-1.52
7,C76U G88U,≤ -4.2
8,C75U C85A,-1.84
9,C75U C85U,0.543
10,C76U U135C,-2.53
11,C76U U135G,-2.79
12,A73U C95A U104G,-4.05
13,C76U G84A C118U U134A G140C U151A,≤ -4.2
14,C75G G81A G92U C125G,≤ -4.2
15,A73U C96G,-1.8
16,G74C G92U,-4.02
17,G74A U77G,≤ -4.2
18,U77C G92C,-3.48
19,C75U C85U U111G A121U G152A,≤ -4.2
20,C76A C93A,-3.88
21,C75A U135C,≤ -4.2
22,C76U C93A,-2.34
23,C75U G83U C129G U144G,≤ -4.2
24,U78A U90C,≤ -4.2

row,Variant,polymerase ribozyme fitness (log ratio)
1,U77C C85A C108A U111C A113U,≤ -4.2
2,U78C C95U C108U C116U,≤ -4.2
3,U78G U90G C131A,≤ -4.2
4,C76U G94A,1.11
5,C76A C79U C96A U139A,≤ -4.2
6,C76U G86U,-2.16
7,C76A C85A A138G U145C,≤ -4.2
8,U78G G141A,≤ -4.2
9,U77C G136U C149G,-4.11
10,U77A,≤ -4.2
11,U77C,-2.04
12,C76A A97G,-1.4
13,C75U U145C U146G,-0.419
14,C76A C95U A142G,-1.94
15,A73U G83C G143C,≤ -4.2
16,C75A C95G C96U,≤ -4.2
17,C76U G94A C105U,-0.337
18,C75G C118U,-3.87
19,U78C C85U C103A G141U G152U,≤ -4.2
20,G74A A89C G94U U109G G117U,≤ -4.2
21,U77G A89G C95G C105G C108G,≤ -4.2
22,C75A C95U A98U C103U U145G U146G,≤ -4.2
23,U78C G92A,-3.78
24,C76A U82A C85G A106G A107U C108G C129A,≤ -4.2

row,Variant,polymerase ribozyme fitness (log ratio)
1,C76U A150U,0.843
2,C76U A150C,-3.79
3,C75G C85U,-3.58
4,U77G G86U C93G C96A C118G U145G,≤ -4.2
5,G74A C85G,-3.83
6,G74A C85U,-3.54
7,U78G A89U A106G C118U,≤ -4.2
8,A73U C103G,≤ -4.2
9,A73U U102G,≤ -4.2
10,G74U C85G C99A A107U C125A,≤ -4.2
11,U77A G88A,≤ -4.2
12,C75G G94C,-3.53
13,C75G G94A,-4.08
14,U77G G84U,≤ -4.2
15,C76U C85A A106C,≤ -4.2
16,C76G G88C,≤ -4.2
17,C75U A121G,-0.596
18,C76U G84A C85A C129U U134C,≤ -4.2
19,C76G G140U U151G,≤ -4.2
20,C76A G84A U134G,-2.67
21,C75G U77A A91G A106U U134G,≤ -4.2
22,U77C C93U G100A A119U A150C,≤ -4.2
23,G74C A97U C132A G141A G143C,≤ -4.2
24,A73U C123U,-0.392

row,Variant,polymerase ribozyme fitness (log ratio)
1,C75U G136C,-2.6
2,U77A C93A A113C,≤ -4.2
3,C76A C79U C125U G140U,≤ -4.2
4,C76U C96U,0.0365
5,C76G G84A A122G,≤ -4.2
6,C75U G84U U101C,-1.45
7,C75A C103G,≤ -4.2
8,U78A,-3.62
9,U78C,-0.318
10,C75G U82G A91C,≤ -4.2
11,A73U C96A U109A C116U,-3.64
12,C76G G84U C116A,≤ -4.2
13,G74A U77G G83A,≤ -4.2
14,C76G G80C C105U,≤ -4.2
15,C76A G94A,-0.598
16,A73U U90G G117U G133U,≤ -4.2
17,G74A U148A,≤ -4.2
18,C76U G84U G143A,-2.57
19,U78A A91U,≤ -4.2
20,C75U C93U G143U,-3.61
21,C76A C85U G140C,-3.97
22,G74A G141U,-2.35
23,C75G G86C C87U,≤ -4.2
24,G74C U82C,-4.05

row,Variant,polymerase ribozyme fitness (log ratio)
1,C75U U78C G84A,-1.65
2,C75A C87U,-3.81
3,C75G A89U C93G U104G A147C,≤ -4.2
4,C75U A91G,-3.07
5,G74C,-3.96
6,G74A,-2.81
7,G74U,-3.33
8,C76A U135C,-1.96
9,U78G C85G A142G U146C,≤ -4.2
10,C76A C96U U145G,-0.785
11,C76U G88A C99A C103A,≤ -4.2
12,C75G C129U,≤ -4.2
13,C76A U104C,-3.57
14,C76U A119G G126U U139G,-0.649
15,C76A A91G,-3.83
16,C76A A91U,≤ -4.2
17,A73U G94A G152C,≤ -4.2
18,G74A A106G A122U,≤ -4.2
19,C76A G83U A106G,-3.45
20,C75G G92C C123A,≤ -4.2
21,U77C A91U U146A,≤ -4.2
22,U78G C114U C125A C149U,≤ -4.2
23,C76A C85U,-0.443
24,C76A C85A,-1.96

row,Variant,polymerase ribozyme fitness (log ratio)
1,G74A A106C A142C,≤ -4.2
2,C75U U90C A91U C93G G94U A98C,≤ -4.2
3,U77G G117U,≤ -4.2
4,C76G C96G C99G G140U U148G,≤ -4.2
5,C75G C85U U101C,≤ -4.2
6,C75U C93U,-0.656
7,C75U C93G,-3
8,C76U C105G,-3.71
9,C76G G88A G136A U139G,≤ -4.2
10,C76G G84A C118A G141C,≤ -4.2
11,C75A G86U,≤ -4.2
12,C75U G92C C132A,≤ -4.2
13,C76A U78C C103G,≤ -4.2
14,U77G G92U A115U,≤ -4.2
15,G74A G100U U104C U109G U146A,≤ -4.2
16,C75G G92U C103G A122C,≤ -4.2
17,C75U C95G C96G,-3.09
18,C75U G84U U148A,≤ -4.2
19,C76U A91U,-4.13
20,U77A U90A G133U A142C,≤ -4.2
21,U77G U78C C85U,≤ -4.2
22,C76G A91U A106G U135A,≤ -4.2
23,C76A A119U U135C C149G,≤ -4.2
